Assay results taken from patent US20260207757A1.

Assays:
[1] = target: type 1 IGF receptor (IGF-1R) (human) (UniProt P08069); assay: displacement of 125I-IGF-1 from MCF7 cells, 4 C overnight
[2] = target: type 1 IGF receptor (IGF-1R) (human) (UniProt P08069); assay: competition binding to IGF receptors against radioactive wild type IGF

type 1 IGF receptor (IGF-1R) (human), sequence (P08069 31-1367): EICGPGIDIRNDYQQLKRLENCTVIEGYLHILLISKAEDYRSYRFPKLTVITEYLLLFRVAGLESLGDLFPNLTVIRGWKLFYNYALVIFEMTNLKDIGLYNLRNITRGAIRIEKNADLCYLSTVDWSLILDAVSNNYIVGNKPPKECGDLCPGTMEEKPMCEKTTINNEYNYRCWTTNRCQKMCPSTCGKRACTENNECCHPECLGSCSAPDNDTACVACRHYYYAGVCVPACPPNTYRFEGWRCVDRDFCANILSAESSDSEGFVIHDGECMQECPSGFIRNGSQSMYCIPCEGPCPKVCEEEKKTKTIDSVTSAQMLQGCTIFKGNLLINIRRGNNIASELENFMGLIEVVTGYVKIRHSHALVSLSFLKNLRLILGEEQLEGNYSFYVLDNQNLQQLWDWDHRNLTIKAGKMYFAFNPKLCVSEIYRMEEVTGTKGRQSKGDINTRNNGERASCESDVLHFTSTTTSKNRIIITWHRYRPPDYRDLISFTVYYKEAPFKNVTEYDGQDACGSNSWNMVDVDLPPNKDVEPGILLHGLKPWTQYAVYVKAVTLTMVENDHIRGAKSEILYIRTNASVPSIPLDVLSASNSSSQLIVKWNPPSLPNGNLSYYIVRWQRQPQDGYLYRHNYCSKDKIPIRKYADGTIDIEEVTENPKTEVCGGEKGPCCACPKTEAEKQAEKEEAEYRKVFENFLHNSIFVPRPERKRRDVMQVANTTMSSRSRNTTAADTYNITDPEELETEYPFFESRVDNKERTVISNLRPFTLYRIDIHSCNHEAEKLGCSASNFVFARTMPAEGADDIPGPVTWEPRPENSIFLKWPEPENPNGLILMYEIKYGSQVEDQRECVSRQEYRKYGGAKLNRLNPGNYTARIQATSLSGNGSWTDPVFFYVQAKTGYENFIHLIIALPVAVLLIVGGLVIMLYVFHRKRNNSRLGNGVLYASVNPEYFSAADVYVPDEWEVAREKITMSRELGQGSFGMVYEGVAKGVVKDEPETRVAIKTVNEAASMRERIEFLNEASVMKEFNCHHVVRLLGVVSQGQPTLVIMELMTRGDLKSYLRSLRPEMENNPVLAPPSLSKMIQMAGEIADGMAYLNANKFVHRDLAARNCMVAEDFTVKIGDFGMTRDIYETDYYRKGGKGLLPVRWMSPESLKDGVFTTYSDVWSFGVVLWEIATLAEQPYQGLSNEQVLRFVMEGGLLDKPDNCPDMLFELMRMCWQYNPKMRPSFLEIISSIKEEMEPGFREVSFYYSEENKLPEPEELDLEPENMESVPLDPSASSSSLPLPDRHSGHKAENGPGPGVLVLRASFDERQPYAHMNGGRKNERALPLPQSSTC

**Q.** long-R3-IGF (ligand) was tested. Which Kd [1] did it give?
**A.** 3 nM

**Q.** And the Kd [2]?
**A.** 1 nM
